From patent US10100120B2, “Antibody which specifically binds to human CRTH2” (KYOWA HAKKO KIRIN CO., LTD, priority 2015, dated 2018)
Residue numbers refer to the chain shown, from its start.

What was measured:
[1] = target: T1, mutated human CRTH2 with amino acid substitution (Homo sapiens, UniProt Q9Y5Y4, N185A/Y183A/Y184A); experiment: Epitope analysis using CHO-S cells which express mutated human CRTH2 with amino acid substitution; format: binding; conditions: mutant Y183A, Y184A, and N185A; antibody 10 μg/mL; relative to wild-type = 100%
T1 construct: inserting genes encoding various mutants with amino acid substitution obtained by deleting termination codons; expressed in transfected cells; host or cells: CHO-S cells (Lifetechnologies), transient (phmAG1-MNLinker vector)
T1 sequence (Q9Y5Y4 1-395 Y183A/Y184A/N185A): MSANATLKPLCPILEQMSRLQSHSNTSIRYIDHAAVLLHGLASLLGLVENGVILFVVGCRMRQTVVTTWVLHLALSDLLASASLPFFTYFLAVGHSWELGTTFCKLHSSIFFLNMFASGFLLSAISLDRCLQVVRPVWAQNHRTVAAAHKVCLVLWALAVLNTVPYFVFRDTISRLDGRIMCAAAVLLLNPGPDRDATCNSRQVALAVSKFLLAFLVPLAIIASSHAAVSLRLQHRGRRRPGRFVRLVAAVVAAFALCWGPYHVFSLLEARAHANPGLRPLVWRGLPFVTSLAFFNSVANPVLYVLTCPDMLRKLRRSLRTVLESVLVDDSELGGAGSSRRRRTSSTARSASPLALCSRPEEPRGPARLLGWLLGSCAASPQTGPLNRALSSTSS
Protocol: (§1) A mutant with amino acid substitution expression vector obtained by partially substituting amino acid residues in an extracellular region with other amino acid residues among the amino acid sequences of human CRTH2 was prepared. Specifically, mutant with amino acid substitution expression vectors obtained by substitution of S2A; N4A; T6A and L7A; K8A, P9A, and L10A; P12A, L14A, and EISA; Q16E, R19H, and Q21R; H23A, S24A, and N25A; T26A, S27A, and I28A; D171A, T172A, and I173A; S174A, R175A, and L176A; D177A, G178A, and R179A; 1180A and M181A; Y183A, Y184A, and N185A; L187A, L188A, and L189A; N190A; P191A; G192A; P193A; D194A; R195A; D196A, and T198A; N275A, G277A, and L278A; P276A; P279A and L281A; P280A; or V282A, R283A, and R284A in the amino acid sequences represented by SEQ ID NO: 2 were respectively prepared. It should be noted that the above symbols in the amino acid substitution indicate [single letter code of an amino acid residue before substitution] [substitution position counting from the N terminal] [single letter code of the amino acid reside after substitution].
(§2) Azami-Green tag was added to the intercellular C terminal region by inserting genes encoding various mutants with amino acid substitution obtained by deleting termination codons to the restriction enzyme sites of BamHI and HindIII using phmAG1-MNLinker (MBL) as expression vectors.
(§3) The above-described vectors expressing mutants with amino acid substitution were prepared using 1) a method of entirely synthesizing gene sequences encoding mutants with amino acid substitution and inserting the gene sequences into a vector or 2) a method of performing site-specific mutation from a vector into which DNA which encodes the amino acid sequences of wild-type human CRTH2 represented by SEQ ID NO: 1 was inserted.
(§4) CHO-S cells (Lifetechnologies) were used for preparing mutated human CRTH2 with amino acid substitution expressing cell lines. Free style CHO expression medium (Invitrogen) containing 8 mM L-Glutamine (Invitrogen) was used for subculturing cells and the cells were cultured by shaking under the conditions of 37° C. in the presence of 5% CO2.
(§5) 25 μg of the mutated human CRTH2 with amino acid substitution expression vector prepared in (1) described above was dissolved in 400 μL of Opti-Pro SFM (Invitrogen) and 25 μL of a Freestyle MAX Reagent (Invitrogen) was dissolved in 400 μL of Opti-Pro SFM and each of them were allowed to stand at room temperature for 5 minutes. The two liquids were mixed with each other and allowed to stand at room temperature for 15 minutes. The mixed solution was added to the CHO-S culture solution and the cells were cultured for 24 hours, thereby obtaining cell lines which express mutated human CRTH2 with amino acid substitution.
(§6) The CHO-S cells which express mutated human CRTH2 with amino acid substitution established in (2) were washed with SM, seeded in a 96-well plate such that one well has 2×10^5 cells, and centrifuged at 1700 rpm for 2 minutes. After the supernatant was removed, chLym2, LV0HV1, the anti-human CRTH2 antibody hu19A2 v52, hu8B1 v1, ch3C12, or ch31A5 prepared in Example 9, or a commercially available anti-human CRTH2 antibody BM16 (Santa Cruz) prepared to have a concentration of 10 μg/mL using SM was added thereto to cause a reaction at 4° C. for 1 hour.
(§7) After the cells were washed, goat anti-Human IgG Alexa 647 (Molecular Probes) diluted with SM was added to wells to which chLym2, LV0HV1, hu19A2 v52, hu8B1 v1, ch3C12, or ch31A5 was added and goat anti-Rat IgG Alexa 647 (Molecular Probes) diluted with SM was added to wells to which BM16 was added at a final concentration of 10 μg/mL to cause a reaction at 4° C. for 1 hour.
(§8) After the reaction, the cells were washed and suspended with SM, and the fluorescent intensity was analyzed by flow cytometry (BD Biosciences, FACS CantoII). […]

[2] = target: T2, mutated human CRTH2 with amino acid substitution (Homo sapiens, UniProt Q9Y5Y4, R195A); experiment: as above; format: binding; conditions: mutant R195A; antibody 10 μg/mL; relative to wild-type = 100%
T2 construct: inserting genes encoding various mutants with amino acid substitution obtained by deleting termination codons; expressed in transfected cells; host or cells: CHO-S cells (Lifetechnologies), transient (phmAG1-MNLinker vector)
T2 sequence (Q9Y5Y4 1-395 R195A): T1 sequence (Q9Y5Y4 1-395 Y183A/Y184A/N185A) with A183Y, A184Y, A185N, R195A
Protocol: as §1, §2, §3, §4, §5, §6, §7, §8

reactivity against cells expressing mutated human CRTH2 [1]: lost
reactivity against cells expressing mutated human CRTH2 [2]: lost
B1: LV0HV1: humanized Lym2 antibody, VL LV0 (SEQ ID NO: 33), VH HV1 (SEQ ID NO: 51) (antibody, V domains shown)
VH: EVQLVESGGGVVQPGRSLRLSCAASGFTFSNYYMAWVRQAPGKGLEWVATISYDGSSTYYRDSVKGRFTISRDNAKNSLYLQMNSLRAEDTATYYCARHRGYYYSGAGYFDYWGQGTMVTVSS
VL: DIVMTQTPLSLPVTPGESASISCRSSQSLEYSDGYTYLEWYLQKPGQSPQVLIYGVSNRFSGVPDRFSGSGSGTDFTLKISRVEAEDVGVYYCFQATHDPLTFGQGTKLEIK
